Biological target: Clostridium perfringens archaeal-type phosphoenolpyruvate carboxylase (PepcA) (Clostridium perfringens) (UniProt Q8XLE8)
Test: AUC

“Clostridium perfringens archaeal-type phosphoenolpyruvate carboxylase (PepcA) (from UniProt Q8XLE8 1-537) (enzyme)” showed a percent of the total concentration as dimer of 30%.

Reference: article PMC3092815 (Proteins, 2011)
